The target of data set [1] is DMRT3 Ser301STOP mutant (truncated, 300 aa) (Equus caballus, UniProt J7FCF0 SEQ:1-300). Put plainly: EMSA; 150x cold competitor used; on ice 20 min then room temperature 30 min; truncation retains DNA binding. The note with it: tags: myc; label: 32P (Klenow fill-in with alpha-32P-dCTP). Here is the method: (§1) The oligonucleotide 5′-ggatcc[…]-3′ and its complementary sequence were annealed in 10 mM Tris pH 7.5, 1 mM EDTA, 50 mM KCl by firstly heating to 95° C. for 2 min and thereafter cooled to 25° C. (2 min/degree). The duplex was labelled with Klenow DNA polymerase and [α-32P]-dCTP and purified using a Bio-Rad Micro Bio-Spin 30 column. DMRT3 wild type and mutant protein were produced by in vitro-translation using a TNT Quick Coupled Transcription/Translation System (Promega). EMSA was performed as described by Culbertson & Leeds, 2003 (Looking at mRNA decay pathways through the window of molecular evolution. Curr. Opin. Genet. Dev. 13, 207-214) with the following modifications. No plasmid DNA was added and 1.0 μl in vitro-translated protein and 150× cold competitor were used. The reaction mixture was incubated on ice for 20 min before adding the radioactive oligo and thereafter incubated at room temperature for 30 min. Gels were run at 150 V in room temperature. […] It may therefore be a dominant negative form with normal DNA-binding but defective interaction with other proteins. This would be consistent with the clear phenotypic effects observed in heterozygotes. However, the mutation is not fully dominant as CA heterozygotes and AA homozygotes show distinct phenotypic differences.
Sequence of DMRT3 Ser301STOP mutant (truncated, 300 aa) (J7FCF0 other isoform, or with tags, fused parts or gaps mutant): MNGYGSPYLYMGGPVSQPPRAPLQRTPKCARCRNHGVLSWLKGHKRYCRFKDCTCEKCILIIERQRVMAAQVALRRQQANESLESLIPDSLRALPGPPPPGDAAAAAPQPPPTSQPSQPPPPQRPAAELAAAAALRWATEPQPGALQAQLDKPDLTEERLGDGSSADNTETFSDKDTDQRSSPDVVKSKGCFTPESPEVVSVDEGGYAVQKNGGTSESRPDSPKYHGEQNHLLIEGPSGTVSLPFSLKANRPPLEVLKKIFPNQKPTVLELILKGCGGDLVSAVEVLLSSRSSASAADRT
(In general: Mobility shift assays separate free from complexed probe on a gel.)

A further data set addresses DMRT3 wild-type (Equus caballus, UniProt F6W2R2 SEQ:1-474). As to the kind of experiment: EMSA; 150x cold competitor used; on ice 20 min then room temperature 30 min. The note with it: tags: myc; label: 32P (Klenow fill-in with alpha-32P-dCTP). Here is the method: as §1

Sequence of DMRT3 wild-type (F6W2R2 whole entry A151D): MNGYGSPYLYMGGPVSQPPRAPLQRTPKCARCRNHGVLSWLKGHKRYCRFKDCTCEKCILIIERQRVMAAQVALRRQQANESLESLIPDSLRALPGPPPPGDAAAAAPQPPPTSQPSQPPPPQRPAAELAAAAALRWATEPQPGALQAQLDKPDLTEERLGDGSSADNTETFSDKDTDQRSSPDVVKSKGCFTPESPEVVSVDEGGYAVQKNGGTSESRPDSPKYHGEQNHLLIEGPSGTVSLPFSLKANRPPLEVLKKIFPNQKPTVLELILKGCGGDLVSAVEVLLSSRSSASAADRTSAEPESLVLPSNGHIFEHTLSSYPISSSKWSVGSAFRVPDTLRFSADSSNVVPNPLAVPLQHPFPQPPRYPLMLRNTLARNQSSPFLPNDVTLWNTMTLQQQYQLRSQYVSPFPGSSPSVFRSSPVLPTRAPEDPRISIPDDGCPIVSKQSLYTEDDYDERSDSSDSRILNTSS

B1: DMRT-binding motif oligonucleotide (dsDNA)
DNA 1: GGATCCTCGAGAACAATGTAACAATTTCGCCC
DNA 2: GGGCGAAATTGTTACATTGTTCTCGAGGATCC
Take B1: the binding result (in data set [1]; with DMRT3 wild-type) was “binds” each time.
